# B1: D107 (antibody, V domains shown)
# VH: QVQLVQSGAEVKKPGASVKVSCKASGYTFTSYDINWVRQATGQGLEWMGWMNPNSGNTGYAQKFQGRVTMTRNPSISTAYMELSSLTSDDTAVYYCATALPWDGYNPYYFHYWGQGTLVTVSS
# VL: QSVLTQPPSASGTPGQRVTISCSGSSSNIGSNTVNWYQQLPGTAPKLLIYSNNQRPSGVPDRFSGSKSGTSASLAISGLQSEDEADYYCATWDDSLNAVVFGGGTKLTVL
# B2: D030 (antibody, V domains shown)
# VH: QVQLVQSGAEVKKPGASVKVSCKASGYTFTSYDINWVRQATGQGLEWMGWMNPNSGNTGYAQKFQGRVTMTRNTSISTAYMELSSLRSEDTAVYYCARDGSGPYDILTGYGMDVWGQGTTVTVSS
# VL: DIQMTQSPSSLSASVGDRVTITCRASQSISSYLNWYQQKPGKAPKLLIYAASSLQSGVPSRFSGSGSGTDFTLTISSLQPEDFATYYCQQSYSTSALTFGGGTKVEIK
# B3: D073 (antibody, V domains shown)
# VH: QLQLQESGPGLVKPSETLSLTCTVSGGSMSSGSYYWGWIRQPPGKGLEWIGSIFYSGSTYYNPSLKSRVTISIDTSKRQFSLNLRSVTAADKAVYYCARQDIMGYSDVWGEGTTVTVSS
# VL: EIVLTQSPGTLSLSPRERATLSCRASQSITSTYFAWYQQRPGQAPRLLIYDGSRRATGIPDRFSASGSGTDFTLTISGLEAEDFAVYYCQQYLRLPYTFGQGTKLEIK
# B4: D079 (antibody, V domains shown)
# VH: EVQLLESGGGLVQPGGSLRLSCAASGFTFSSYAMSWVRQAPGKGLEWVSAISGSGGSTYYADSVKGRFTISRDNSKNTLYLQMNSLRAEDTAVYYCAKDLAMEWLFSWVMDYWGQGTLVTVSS
# VL: QSALTQPASVSGSPGQSITISCTGTSSDVGGYNYVSWYQQHPGKAPKIMIYDVSNRPSGVFNRFFGSKSGNTASLTIFGLQAEDEADYYCSSYTSSSTLGVFGGGTKLTVL
# B5: D104 (antibody, V domains shown)
# VH: QVQLQQWGAGLLKPSETLSLTCAVYGESFSGHYWTWIRQPPGKGLEWIGEINHRGSTDYHASLKSRVSISIDTSKNQFSLRLKSVTAAETAIYYCARGRSAWPRRSFAFWGQGILVTVSS
# VL: DIQMTQSPSTLSASVGDRVTITCRASQSISTSLAWYQQKPGKAPKLLIYESSTLESGIPSRFSGSGFRTGFTLTISSLQPDDVATYYCQHYNASPYTFGQGTKLEIK
# B6: D131 (antibody, V domains shown)
# VH: QVQLVQSGAEVKKPGASVKVSCKASGYTFTSYGISWVRQAPGQGLEWMGWISAYNGNTNYVQKLQGRVTMTTDTSTSTAYMELRSLRSDDTAVYYCARVQYYYGSGSYRSTYYFDYWGQGTLVTVSS
# VL: QPVLTQSSSASASLGSSVKLTCTLSSGHSSYIIAWHQQQPGKAPRYLMNLEGSGSYNKGSGVPDRFSGSSSGADRYLTISNLQSEDEADYYCETWDSNIWVFGGGTKLTVL
# B7: D137 (antibody, V domains shown)
# VH: QVQLVQSGAEVKKPGASVKVSCKASGYTFTSYDINWVRQATGQGLEWMGWMNPNSGNTGYAQKFQGRVTMTRNTSISTAYMELSSLRSEDTAVYYCARAYCSGGSCYSQPWGQGTLVTVSS
# VL: QSALTQPPSASGSPGQSVTISCTGTSSDVGGYNYVSWYQQHPGKAPKLMIYEVSKRPSGVPDRFSGSKSGNTASLTVSGLQAEDEADYYCSSYAGSNNWVFGGGTKLTVL
# B8: D054 (antibody, V domains shown)
# VH: QVQLVQSGAEVKKPGASVKVSCKASGYTFTSYYMHWVRQAPGQGLEWMGIINPSGGSTSYAQKFQGRVTMTRDTSTSTVYMELSSLRSEDTAVYYCARESGTGFGELPKGGPFDYWGQGTLVTVSS
# VL: not shown
# B9: D184 (antibody, V domains shown)
# VH: QVQLVQSGAEVKKPGSSVKVSCKASGGTFSSYAISWVRQAPGQGLEWMGGIIPIFGTANYAQKFQGRVTITADESTSTAYMELSSLRSEDTAVYYCARGRGSTYYYYYYMDVWGKGTTVTVSS
# VL: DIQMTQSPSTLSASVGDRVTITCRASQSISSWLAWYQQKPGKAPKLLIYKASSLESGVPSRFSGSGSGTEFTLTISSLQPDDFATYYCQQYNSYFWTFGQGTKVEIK
# B10: D081 (antibody, V domains shown)
# VH: QVQLQESGPGLVKPSQTLSLTCTVSGGSISSGDYYWSWIRQPPGKGLEWIGYIYYSGSTYYNPSLKSRVTISVDTSKNQFSLKLSSVTAADTAVYYCARVAGIVNWFDPWGQGTLVTVSS
# VL: NFMLTQPHSVSESPGKTVTISCTGSSGSIASNYVQWYQQRPGSAPTTVIYEDNQRPSGVPDRFSGSIDSSSNSASLTISGLKTEDEADYYCQSYDSSNQVFGGGTKLTVL
# Molecular target: SARS-CoV-2 spike RBD (WT) (Severe acute respiratory syndrome …, UniProt P0DTC2)
# Assay: ELISA
# Design: unit not given here
row,Binder,binding score
1,B1,> 10000
2,B2,> 10000
3,B3,> 10000
4,B4,> 10000
5,B5,> 10000
6,B6,> 10000
7,B7,395
8,B8,> 10000
9,B9,8050
10,B10,> 10000

# Reference: paper PMC9876794 (2022)
